Reference: patent US20040005324A1

Target: purified RSV F glycoprotein (respiratory syncytial virus)
Assay: ELISA on purified F glycoprotein, control Fab
Conditions: scale: reciprocal dilution

Sequence of purified RSV F glycoprotein (respiratory syncytial virus) (P12568 26-109, chain 1 of 2): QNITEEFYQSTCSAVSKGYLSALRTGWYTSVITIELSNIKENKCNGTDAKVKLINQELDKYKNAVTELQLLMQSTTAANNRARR
Sequence of purified RSV F glycoprotein (respiratory syncytial virus) (P12568 137-574, chain 2 of 2): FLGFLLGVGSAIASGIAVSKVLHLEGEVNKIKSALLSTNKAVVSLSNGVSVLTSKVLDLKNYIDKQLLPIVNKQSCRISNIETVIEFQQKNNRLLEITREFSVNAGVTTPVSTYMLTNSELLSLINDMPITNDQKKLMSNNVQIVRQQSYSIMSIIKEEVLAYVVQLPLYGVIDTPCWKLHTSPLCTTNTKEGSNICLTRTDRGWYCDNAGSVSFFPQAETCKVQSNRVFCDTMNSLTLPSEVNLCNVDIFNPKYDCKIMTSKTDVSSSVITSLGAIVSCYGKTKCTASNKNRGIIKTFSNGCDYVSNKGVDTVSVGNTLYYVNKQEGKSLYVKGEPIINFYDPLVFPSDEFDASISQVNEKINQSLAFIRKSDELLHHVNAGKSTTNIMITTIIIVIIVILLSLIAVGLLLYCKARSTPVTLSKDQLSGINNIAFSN

## hepatitis B Fab
  ELISA titer: 2
